# Test system: HeLa Kyoto
# Experiment: melting temperature (median over replicates), in situ; higher = more thermally stable
# 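Also: HeLa Kyoto cells synchronized by double thymidine or nocodazole block, proteins quantified by TMT10plex mass spectrometry, three independent biological replicates.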
# Chain of MSRB2 (chain, as listed by the source): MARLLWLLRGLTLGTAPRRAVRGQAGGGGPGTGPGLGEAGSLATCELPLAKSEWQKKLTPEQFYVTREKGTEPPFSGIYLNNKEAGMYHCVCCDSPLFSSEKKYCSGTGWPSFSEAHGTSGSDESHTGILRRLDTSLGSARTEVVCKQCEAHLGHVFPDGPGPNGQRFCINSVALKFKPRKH
substance,measurement,setting,value
MQFMLLFSRQGKLRLQKWYVPLSDKEKKKITRELVQTVLARKPKMCSFLEWRDLKIVYKRYASLYFCCAIEDQDNELITLEIIHRYVELLDKYFGSVCELDIIFNFEKAYFILDEFLLGGEVQETSKKNVLKAIEQADLLQEEAETPRSVLEEIGLT [AP1S2],melting temperature,cell cycle stage: mitosis,49.7 °C
MSKRNQVSYVRPAEPAFLARFKERVGYREGPTVETKRIQPQPPDEDGDHSDKEDEQPQVVVLKKGDLSVEEVMKIKAEIKAAKADEEPTPADGRIIYRKPVKHPSDEKYSGLTASSKKKKPNEDEVNQDSVKKNSQKQIKNSSLLSFDNEDENE [KIAA1143],melting temperature,cell cycle stage: mitosis,52 °C
MGDMANSSIEFHPKPQQQRDVPQAGGFGCTLAELRTLMELRGAEALQKIEEAYGDVSGLCRRLKTSPTEGLADNTNDLEKRRQIYGQNFIPPKQPKTFLQLVWEALQDVTLIILEVAAIVSLGLSFYAPPGEESEACGNVSGGAEDEGEAEAGWIEGAAILLSVICVVLVTAFNDWSKEKQFRGLQSRIEQEQKFTVIRNGQLLQVPVAALVVGDIAQVKYGDLLPADGVLIQANDLKIDESSLTGESDHVRKSADKDPMLLSGTHVMEGSGRMVVTAVGVNSQTGIIFTLLGAGGEEEEKKDKKGKQQDGAMESSQTKAKKQDGAVAMEMQPLKSAEGGEMEEREKKKANAPKKEKSVLQGKLTKLAVQIGKAGLVMSAITVIILVLYFVIETFVVEGRTWLAECTPVYVQYFVKFFIIGVTVLVVAVPEGLPLAVTISLAYSVKKMMKDNNLVRHLDACETMGNATAICSDKTGTLTTNRMTVVQSYLGDTHYKEIPAPSALTPKILDLLVHAISINSAYTTKILPPEKEGALPRQVGNKTECALLGFVLDLKRDFQPVREQIPEDKLYKVYTFNSVRKSMSTVIRMPDGGFRLFSKGASEILLKKCTNILNSNGELRGFRPRDRDDMVRKIIEPMACDGLRTICIAYRDFSAGQEPDWDNENEVVGDLTCIAVVGIEDPVRPEVPEAIRKCQRAGITVRMVTGDNINTARAIAAKCGIIQPGEDFLCLEGKEFNRRIRNEKGEIEQERLDKVWPKLRVLARSSPTDKHTLVKGIIDSTTGEQRQVVAVTGDGTNDGPALKKADVGFAMGIAGTDVAKEASDIILTDDNFTSIVKAVMWGRNVYDSISKFLQFQLTVNVVAVIVAFTGACITQDSPLKAVQMLWVNLIMDTFASLALATEPPTESLLLRKPYGRDKPLISRTMMKNILGHAVYQLAIIFTLLFVGELFFDIDSGRNAPLHSPPSEHYTIIFNTFVMMQLFNEINARKIHGERNVFDGIFSNPIFCTIVLGTFGIQIVIVQFGGKPFSCSPLSTEQWLWCLFVGVGELVWGQVIATIPTSQLKCLKEAGHGPGKDEMTDEELAEGEEEIDHAERELRRGQILWFRGLNRIQTQIRVVKAFRSSLYEGLEKPESKTSIHNFMATPEFLINDYTHNIPLIDDTDVDENEERLRAPPPPSPNQNNNAIDSGIYLTTHVTKSATSSVFSSSPGSPLHSVETSL [ATP2B3],melting temperature,cell cycle stage: G1/S,54.2 °C
MSRB2,melting temperature,cell cycle stage: G1/S,52.4 °C
same,melting temperature,cell cycle stage: mitosis,52.6 °C
MNILPKKSWHVRNKDNVARVRRDEAQAREEEKERERRVLLAQQEARTEFLRKKARHQNSLPELEAAEAGAPGSGPVDLFRELLEEGKGVIRGNKEYKEEKRQEKERQEKALGILTYLGQSAAEAQTQPPWYQLPPGRGGPPPGPAPDEKIKSRLDPLREMQKHLGKKRQHGGDEGSRSRKEKEGSEKQRPKEPPSLDQLRAERLRREAAERSRAEALLARVQGRALQEGQPEEDETDDRRRRYNSQFNPQLARRPRQQDPHLTH [LENG1],melting temperature,cell cycle stage: mitosis,52.5 °C
MAELQMLLEEEIPGGRRALFDSYTNLERVADYCENNYIQSADKQRALEETKAYTTQSLASVAYLINTLANNVLQMLDIQASQLRRMESSINHISQTVDIHKEKVARREIGILTTNKNTSRTHKIIAPANLERPVRYIRKPIDYTILDDIGHGVKWLLRFKVSTQNMKMGGLPRTTPPTQKPPSPPMSGKGTLGRHSPYRTLEPVRPPVVPNDYVPSPTRNMAPSQQSPVRTASVNQRNRTYSSSGSSGGSHPSSRSSSRENSGSGSVGVPIAVPTPSPPSVFPAPAGSAGTPPLPATSASAPAPLVPATVPSSTAPNAAAGGAPNLADGFTSPTPPVVSSTPPTGHPVQFYSMNRPASRHTPPTIGGSLPYRRPPSITSQTSLQNQMNGGPFYSQNPVSDTPPPPPPVEEPVFDESPPPPPPPEDYEEEEAAVVEYSDPYAEEDPPWAPRSYLEKVVAIYDYTKDKEDELSFQEGAIIYVIKKNDDGWYEGVMNGVTGLFPGNYVESIMHYSE [ABI2],melting temperature,cell cycle stage: G1/S,52.3 °C
same,melting temperature,cell cycle stage: mitosis,52.5 °C
MLQQDSNDDTEDVSLFDAEEETTNRPRKAKIRHPVASFFHLFFRVSAIIVCLLCELLSSSFITCMVTIILLLSCDFWAVKNVTGRLMVGLRWWNHIDEDGKSHWVFESRKESSQENKTVSEAESRIFWLGLIACSVLWVIFAFSALFSFTVKWLRRSRHIAQTGLKVLGSRDPPASAFQSAGITGVSRCPGHPSRKFHQVDINSFTRITDRALYWKPAPRLSSPPLRAAPGNCQQMAPARLFLSLRLWAWRGGGESPNSRGTGEPGPKFHLASGMH [TVP23C],melting temperature,cell cycle stage: mitosis,56 °C
MFSLPLNCSPDHIRRGSCWGRPQDLKIAAPAWNSKCHPGAGAAMARQHARTLWYDRPRYVFMEFCVEDSTDVHVLIEDHRIVFSCKNADGVELYNEIEFYAKVNSKPVWLSVDFDNWRDWEGDEEMELAHVEHYAELLKKVSTKRPPPAMDDLDDDSDSADDATSN [PTGES3L],melting temperature,cell cycle stage: G1/S,49.8 °C
same,melting temperature,cell cycle stage: mitosis,49.9 °C
MAEEMESSLEASFSSSGAVSGASGFLPPARSRIFKIIVIGDSNVGKTCLTYRFCAGRFPDRTEATIGVDFRERAVEIDGERIKIQLWDTAGQERFRKSMVQHYYRNVHAVVFVYDMTNMASFHSLPSWIEECKQHLLANDIPRILVGNKCDLRSAIQVPTDLAQKFADTHSMPLFETSAKNPNDNDHVEAIFMTLAHKLKSHKPLMLSQPPDNGIILKPEPKPAMTCWC [RAB33B],melting temperature,cell cycle stage: G1/S,54.3 °C
same,melting temperature,cell cycle stage: mitosis,55 °C
MLILTKTAGVFFKPSKRKVYEFLRSFNFHPGTLFLHKIVLGIETSCDDTAAAVVDETGNVLGEAIHSQTEVHLKTGGIVPPAAQQLHRENIQRIVQEALSASGVSPSDLSAIATTIKPGLALSLGVGLSFSLQLVGQLKKPFIPIHHMEAHALTIRLTNKVEFPFLVLLISGGHCLLALVQGVSDFLLLGKSLDIAPGDMLDKVARRLSLIKHPECSTMSGGKAIEHLAKQGNRFHFDIKPPLHHAKNCDFSFTGLQHVTDKIIMKKEKEEGIEKGQILSSAADIAATVQHTMACHLVKRTHRAILFCKQRDLLPQNNAVLVASGGVASNFYIRRALEILTNATQCTLLCPPPRLCTDNGIMIAWNGIERLRAGLGILHDIEGIRYEPKCPLGVDISKEVGEASIKVPQLKMEI [OSGEPL1],melting temperature,cell cycle stage: G1/S,53.6 °C
same,melting temperature,cell cycle stage: mitosis,51.1 °C
MKPNFSLRLRIFNLNCWGIPYLSKHRADRMRRLGDFLNQESFDLALLEEVWSEQDFQYLRQKLSPTYPAAHHFRSGIIGSGLCVFSKHPIQELTQHIYTLNGYPYMIHHGDWFSGKAVGLLVLHLSGMVLNAYVTHLHAEYNRQKDIYLAHRVAQAWELAQFIHHTSKKADVVLLCGDLNMHPEDLGCCLLKEWTGLHDAYLETRDFKGSEEGNTMVPKNCYVSQQELKPFPFGVRIDYVLYKAVSGFYISCKSFETTTGFDPHRGTPLSDHEALMATLFVRHSPPQQNPSSTHGPAERSPLMCVLKEAWTELGLGMAQARWWATFASYVIGLGLLLLALLCVLAAGGGAGEAAILLWTPSVGLVLWAGAFYLFHVQEVNGLYRAQAELQHVLGRAREAQDLGPEPQPALLLGQQEGDRTKEQ [SMPD2],melting temperature,cell cycle stage: mitosis,55.7 °C
MGLELFLDLVSQPSRAVYIFAKKNGIPLELRTVDLVKGQHKSKEFLQINSLGKLPTLKDGDFILTESSAILIYLSCKYQTPDHWYPSDLQARARVHEYLGWHADCIRGTFGIPLWVQVLGPLIGVQVPEEKVERNRTAMDQALQWLEDKFLGDRPFLAGQQVTLADLMALEELMQPVALGYELFEGRPRLAAWRGRVEAFLGAELCQEAHSIILSILEQAAKKTLPTPSPEAYQAMLLRIARIP [GSTT2B],melting temperature,cell cycle stage: G1/S,54.9 °C
same,melting temperature,cell cycle stage: mitosis,55.1 °C

# — the supplement of paper PMC5998384
